Data set [1] has as its system HeLa Kyoto. Kind of data set: solubility in G1/S (NP-40 vs SDS abundance) (log2 ratio); higher = more soluble. To be noted: cell cycle stage: G1/S.
Data set [2] deals with HeLa Kyoto. Kind of data set: melting temperature (median over replicates), in situ; higher = more thermally stable.
The subject of data set [3] is HeLa Kyoto. Kind of data set: solubility change mitosis vs G1/S (difference of NP-40 vs SDS log2 ratios) (log2 ratio difference); higher = more soluble in mitosis.
For data set [4], the system named is HeLa Kyoto. Kind of data set: thermal stability score vs G1/S (z-score of summed log2 fold changes over temperatures); higher = more thermally stable than in G1/S.
The mark [5] stands for this setting: cell cycle stage: early G1 (4.5 h after nocodazole release).
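Wherever melting temperature (median over replicates), in situ is given: HeLa Kyoto cells synchronized by double thymidine or nocodazole block, proteins quantified by TMT10plex mass spectrometry, three independent biological replicates.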
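Wherever solubility change mitosis vs G1/S (difference of NP-40 vs SDS log2 ratios) is given: synchronized HeLa Kyoto cells (double thymidine block for G1/S, nocodazole release for mitosis), protein amounts in NP-40 versus SDS lysates quantified by mass spectrometry, three biological replicates.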
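Wherever solubility in G1/S (NP-40 vs SDS abundance) is given: HeLa Kyoto cells arrested at G1/S by double thymidine block, proteins quantified by TMT10plex mass spectrometry in mild NP-40 versus SDS extracts, three biological replicates.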
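Wherever thermal stability score vs G1/S (z-score of summed log2 fold changes over temperatures) is given: synchronized HeLa Kyoto cells, proteins quantified by TMT10plex mass spectrometry, three biological replicates, mitosis taken 0.5 h after nocodazole release, G1/S directly after double thymidine block.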

For the sequence “MHPRRPDGFDGLGYRGGARDEQGFGGAFPARSFSTGSDLGHWVTTPPDIPGSRNLHWGEKSPPYGVPTTSTPYEGPTEEPFSSGGGGSVQGQSSEQLNRFAGFGIGLASLFTENVLAHPCIVLRRQCQVNYHAQHYHLTPFTVINIMYSFNKTQGPRALWKGMGSTFIVQGVTLGAEGIISEFTPLPREVLHKWSPKQIGEHLLLKSLTYVVAMPFYSASLIETVQSEIIRDNTGILECVKEGIGRVIGMGVPHSKRLLPLLSLIFPTVLHGVLHYIISSVIQKFVLLILKRKTYNSHLAESTSPVQSMLDAYFPELIANFAASLCSDVILYPLETVLHRLHIQGTRTIIDNTDLGYEVLPINTQYEGMRDCINTIRQEEGVFGFYKGFGAVIIQYTLHAAVLQITKIIYSTLLQNNI [SLC25A46]”, the “solubility in G1/S (log2)” value in the data set with HeLa Kyoto [1] amounted to 0.0119. The melting temperature with HeLa Kyoto [2] (cell cycle stage: G1/S) was determined as 54.2 °C; in the data set on HeLa Kyoto [2] (cell cycle stage: mitosis) it was 53.8 °C. For the same sequence, in the data set with HeLa Kyoto [3], the “solubility change mitosis (log2)” value was -0.0414. Moreover, the thermal stability score in the data set on HeLa Kyoto [4] (setting [5]) is -2.69; in the data set on HeLa Kyoto [4] (cell cycle stage: mitosis), -1.76.
For the sequence “MAAPCEGQAFAVGVEKNWGAVVRSPEGTPQKIRQLIDEGIAPEEGGVDAKDTSATSQSVNGSPQAEQPSLESTSKEAFFSRVETFSSLKWAGKPFELSPLVCAKYGWVTVECDMLKCSSCQAFLCASLQPAFDFDRYKQRCAELKKALCTAHEKFCFWPDSPSPDRFGMLPLDEPAILVSEFLDRFQSLCHLDLQLPSLRPEDLKTMCLTEDKISLLLHLLEDELDHRTDERKTTIKLGSDIQVHVTACILSVCGWACSSSLESMQLSLITCSQCMRKVGLWGFQQIESSMTDLDASFGLTSSPIPGLEGRPERLPLVPESPRRMMTRSQDATFSPGSEQAEKSPGPIVSRTRSWDSSSPVDRPEPEAASPTTRTRPVTRSMGTGDTPGLEVPSSPLRKAKRARLCSSSSSDTSSRSFFDPTSQHRDWCPWVNITLGKESRENGGTEPDASAPAEPGWKAVLTILLAHKQSSQPAETDSMSLSEKSRKVFRIFRQWESLCSC [ZC3HC1]”, in the data set on HeLa Kyoto [1], the “solubility in G1/S (log2)” value is 0.00532. For the same sequence, the melting temperature in the data set with HeLa Kyoto [2] (cell cycle stage: G1/S) was 49.3 °C; in the data set on HeLa Kyoto [2] (cell cycle stage: mitosis) it was 49.2 °C. The “solubility change mitosis (log2)” value in the data set with HeLa Kyoto [3] was -0.163. Further, the figures for the thermal stability score with HeLa Kyoto [4] (setting [5]) and with HeLa Kyoto [4] (cell cycle stage: mitosis) were 0.508 and 1.84, respectively.
Regarding “MASPGIEVELLGKGHSDLGEVAPEIKASERRTAVAIADLEWREMEGDDCEFRYGDGTNEAQDNDFPTVERSRLQEMLSLLGLETYQVQKLSLQDSLQISFDSMKNWAPQVPKDLPWNFLRKLQALNADARNTTMVLDVLPDARPVEKESQMEEEIIYWDPADDLAADIYSFSELPTPDTPVNPLDLLCALLLSSDSFLQQEIALKMALCQFALPLVLPDSENHYHTFLLWAMRGIVRTWWSQPPRGMGSFREDSVVLSRAPAFAFVRMDVSSNSKSQLLNAVLSPGHRQWDCFWHRDLNLGTNAREISDGLVEISWFFPSGREDLDIFPEPVAFLNLRGDIGSHWLQFKLLTEISSAVFILTDNISKKEYKLLYSMKESTTKYYFILSPYRGKRNTNLRFLNKLIPVLKIDHSHVLVKVSSTDSDSFVKRIRAIVGNVLRAPCRRVSVEDMAHAARKLGLKVDEDCEECQKAKDRMERITRKIKDSDAYRRDELRLQGDPWRKAAQVEKEFCQLQWAVDPPEKHRAELRRRLLELRMQQNGHDPSSGVQEFISGISSPSLSEKQYFLRWMEWGLARVAQPRLRQPPETLLTLRPKHGGTTDVGEPLWPEPLGVEHFLREMGQFYEAESCLVEAGRLPAGQRRFAHFPGLASELLLTGLPLELIDGSTLSMPVRWVTGLLKELHVRLERRSRLVVLSTVGVPGTGKSTLLNTMFGLRFATGKSCGPRGAFMQLITVAEGFSQDLGCDHILVIDSGGLIGGALTSAGDRFELEASLATLLMGLSNVTVISLAETKDIPAAILHAFLRLEKTGHMPNYQFVYQNLHDVSVPGPRPRDKRQLLDPPGDLSRAAAQMEKQGDGFRALAGLAFCDPEKQHIWHIPGLWHGAPPMAAVSLAYSEAIFELKRCLLENIRNGLSNQNKNIQQLIELVRRL [URGCP]”, the “solubility in G1/S (log2)” value with HeLa Kyoto [1] is -0.246. For the same sequence, the melting temperature with HeLa Kyoto [2] (cell cycle stage: G1/S) is 49.3 °C; in the data set on HeLa Kyoto [2] (cell cycle stage: mitosis), 49.8 °C. The “solubility change mitosis (log2)” value with HeLa Kyoto [3] is -0.0805. For the same sequence, the figures for the thermal stability score in the data set with HeLa Kyoto [4] (setting [5]) and with HeLa Kyoto [4] (cell cycle stage: mitosis) were 0.429 and 0.88, respectively.
With “MEKTCIDALPLTMNSSEKQETVCIFGTGDFGRSLGLKMLQCGYSVVFGSRNPQKTTLLPSGAEVLSYSEAAKKSGIIIIAIHREHYDFLTELTEVLNGKILVDISNNLKINQYPESNAEYLAHLVPGAHVVKAFNTISAWALQSGALDASRQVFVCGNDSKAKQRVMDIVRNLGLTPMDQGSLMAAKEIEKYPLQLFPMWRFPFYLSAVLCVFLFFYCVIRDVIYPYVYEKKDNTFRMAISIPNRIFPITALTLLALVYLPGVIAAILQLYRGTKYRRFPDWLDHWMLCRKQLGLVALGFAFLHVLYTLVIPIRYYVRWRLGNLTVTQAILKKENPFSTSSAWLSDSYVALGILGFFLFVLLGITSLPSVSNAVNWREFRFVQSKLGYLTLILCTAHTLVYGGKRFLSPSNLRWYLPAAYVLGLIIPCTVLVIKFVLIMPCVDNTLTRIRQGWERNSKH [STEAP4]”, the “solubility in G1/S (log2)” value with HeLa Kyoto [1] was -0.0287. In addition, the melting temperature turned out to be 60.3 °C in the data set on HeLa Kyoto [2] (cell cycle stage: G1/S) and 57.7 °C with HeLa Kyoto [2] (cell cycle stage: mitosis). For the same sequence, the “solubility change mitosis (log2)” value with HeLa Kyoto [3] was -0.115. Besides, the results for the thermal stability score with HeLa Kyoto [4] (setting [5]) and with HeLa Kyoto [4] (cell cycle stage: mitosis) were -2.95 and -3.54, respectively.
In the case of “MFVELNNLLNTTPDRAEQGKLTLLCDAKTDGSFLVHHFLSFYLKANCKVCFVALIQSFSHYSIVGQKLGVSLTMARERGQLVFLEGLKSAVDVVFQAQKEPHPLQFLREANAGNLKPLFEFVREALKPVDSGEARWTYPVLLVDDLSVLLSLGMGAVAVLDFIHYCRATVCWELKGNMVVLVHDSGDAEDEENDILLNGLSHQSHLILRAEGLATGFCRDVHGQLRILWRRPSQPAVHRDQSFTYQYKIQDKSVSFFAKGMSPAVL [ELP6]”, the “solubility in G1/S (log2)” value in the data set with HeLa Kyoto [1] is -0.082. The melting temperature is 55.1 °C with HeLa Kyoto [2] (cell cycle stage: G1/S) and 54.4 °C in the data set on HeLa Kyoto [2] (cell cycle stage: mitosis). Moreover, the “solubility change mitosis (log2)” value in the data set with HeLa Kyoto [3] was -0.245. The thermal stability score is -0.431 in the data set on HeLa Kyoto [4] (setting [5]) and -1.3 in the data set with HeLa Kyoto [4] (cell cycle stage: mitosis).

(Values after the supplement of paper PMC5998384.)
